# Results from the supplement of paper PMC6757056.
# ± gives the standard deviation of the averaged measurements.
# B1: library; a variant is named by its letters at N, in order (parent)
# chain: GCUGUCACCGGAAUACCAGCAUCGUCUUGAUGCCCUUGGAAGUCCGGUCUGAUGAGUCCNNNNNGGACGAAACAGC
# What was measured:
# theophylline [1] = variants of: B1; test: FACS-Seq fitted mean relative fluorescence mCherry/BFP without ligand (log10 relative fluorescence); higher = higher reporter protein expression; details: HEK293T, ligand present: no
# Experimental: (§1)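 Hammerhead (sTRSV) ribozyme switch libraries with a ligand aptamer grafted on stem I and a randomized N4-6 loop II, cloned into the 3' UTR of mCherry and transiently transfected into HEK293T cells; RNA-Seq 72 h post transfection with ligand added 1 h before transfection; RNA read count / plasmid DNA read count normalized to the non-cleaving sTRSVctl (x100), log10; sequences with >100 DNA reads. FACS-Seq: lentiviral library sorted into 6 bins after 48 h ligand, log-normal fit mean of mCherry/BFP scaled to controls. Printed sequences are partial switch sequences.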
# theophylline [2] = variants of: B1; test: normalized RNA/DNA level with ligand (relative to sTRSVctl = 100) (log10 (% of sTRSVctl)); higher = less ribozyme self-cleavage, higher mRNA level; details: ligand concentration (+) RNA-Seq: 5 mM, HEK293T, reporter: mCherry (pCS4076), ligand present: yes
# Experimental: as §1
# theophylline [3] = variants of: B1; test: normalized RNA/DNA level without ligand (relative to sTRSVctl = 100) (log10 (% of sTRSVctl)); higher = less ribozyme self-cleavage, higher mRNA level; details: HEK293T, reporter: mCherry (pCS4076), ligand present: no
# Experimental: as §1
# theophylline [4] = variants of: B1; test: FACS-Seq fitted mean relative fluorescence mCherry/BFP with ligand (log10 relative fluorescence); ligand concentration (+) FACS-Seq: 1 mM; higher = higher reporter protein expression; details: HEK293T, ligand present: yes
# Experimental: as §1
Variant,FACS-Seq fitted mean (log10) (theophylline [1]),normalized RNA/DNA level with ligand (log10) (theophylline [2]),normalized RNA/DNA level without ligand (log10) (theophylline [3]),FACS-Seq fitted mean (log10) (theophylline [4])
GCUGUCACCGGAAUACCAGCAUCGUCUUGAUGCCCUUGGAAGUCCGGUCUGAUGAGUCCGAAAUGGACGAAACAGC,0.796 ± 0.0017,2.01 ± 0.038,1.71 ± 0.059,1.04 ± 0.097
GCUGUCACCGGAAUACCAGCAUCGUCUUGAUGCCCUUGGAAGUCCGGUCUGAUGAGUCCUAAAUGGACGAAACAGC,0.912 ± 0.013,1.978 ± 0.0035,1.84 ± 0.13,0.9829 ± 0.0075
GCUGUCACCGGAAUACCAGCAUCGUCUUGAUGCCCUUGGAAGUCCGGUCUGAUGAGUCCUAAAGGGACGAAACAGC,0.272 ± 0.033,2.041 ± 0.007,1.84 ± 0.11,0.497 ± 0.037
GCUGUCACCGGAAUACCAGCAUCGUCUUGAUGCCCUUGGAAGUCCGGUCUGAUGAGUCCAAAAGGGACGAAACAGC,0.487 ± 0.041,1.971 ± 0.00093,1.66 ± 0.028,0.638 ± 0.13
GCUGUCACCGGAAUACCAGCAUCGUCUUGAUGCCCUUGGAAGUCCGGUCUGAUGAGUCCAAAAUGGACGAAACAGC,0.464 ± 0.031,2.02 ± 0.028,1.68 ± 0.028,0.572 ± 0.045
GCUGUCACCGGAAUACCAGCAUCGUCUUGAUGCCCUUGGAAGUCCGGUCUGAUGAGUCCAAACGGGACGAAACAGC,0.558 ± 0.061,2 ± 0.03,1.84 ± 0.12,0.652 ± 0.062
GCUGUCACCGGAAUACCAGCAUCGUCUUGAUGCCCUUGGAAGUCCGGUCUGAUGAGUCCAAACUGGACGAAACAGC,0.552 ± 0.079,1.97 ± 0.093,1.79 ± 0.033,0.604 ± 0.0015
GCUGUCACCGGAAUACCAGCAUCGUCUUGAUGCCCUUGGAAGUCCGGUCUGAUGAGUCCAAACCGGACGAAACAGC,0.153 ± 0.14,1.96 ± 0.097,1.91 ± 0.14,0.18 ± 0.0037
GCUGUCACCGGAAUACCAGCAUCGUCUUGAUGCCCUUGGAAGUCCGGUCUGAUGAGUCCAAACAGGACGAAACAGC,-0.0142 ± 0.16,1.9113 ± 0.00046,1.72 ± 0.14,0.172 ± 0.072
GCUGUCACCGGAAUACCAGCAUCGUCUUGAUGCCCUUGGAAGUCCGGUCUGAUGAGUCCCAAAUGGACGAAACAGC,0.264 ± 0.0079,1.946 ± 0.0043,1.6 ± 0.19,0.399 ± 0.048
GCUGUCACCGGAAUACCAGCAUCGUCUUGAUGCCCUUGGAAGUCCGGUCUGAUGAGUCCUAACAGGACGAAACAGC,0.606 ± 0.025,1.99 ± 0.066,1.55 ± 0.053,0.813 ± 0.024
GCUGUCACCGGAAUACCAGCAUCGUCUUGAUGCCCUUGGAAGUCCGGUCUGAUGAGUCCUAACGGGACGAAACAGC,0.784 ± 0.07,1.99 ± 0.04,1.87 ± 0.18,0.711 ± 0.018
GCUGUCACCGGAAUACCAGCAUCGUCUUGAUGCCCUUGGAAGUCCGGUCUGAUGAGUCCUAACCGGACGAAACAGC,0.589 ± 0.058,1.92 ± 0.025,1.92 ± 0.04,0.702 ± 0.061
GCUGUCACCGGAAUACCAGCAUCGUCUUGAUGCCCUUGGAAGUCCGGUCUGAUGAGUCCCAACCGGACGAAACAGC,1.06 ± 0.065,1.91 ± 0.059,1.994 ± 0.0033,1.02 ± 0.03
GCUGUCACCGGAAUACCAGCAUCGUCUUGAUGCCCUUGGAAGUCCGGUCUGAUGAGUCCCAACAGGACGAAACAGC,0.729 ± 0.046,1.98 ± 0.018,1.53 ± 0.0043,0.886 ± 0.058
GCUGUCACCGGAAUACCAGCAUCGUCUUGAUGCCCUUGGAAGUCCGGUCUGAUGAGUCCGAACCGGACGAAACAGC,0.828 ± 0.017,2 ± 0.024,1.87 ± 0.13,0.834 ± 0.11
GCUGUCACCGGAAUACCAGCAUCGUCUUGAUGCCCUUGGAAGUCCGGUCUGAUGAGUCCGAACGGGACGAAACAGC,1.01 ± 0.081,1.89 ± 0.14,1.793 ± 0.015,1.03 ± 0.028
GCUGUCACCGGAAUACCAGCAUCGUCUUGAUGCCCUUGGAAGUCCGGUCUGAUGAGUCCGAACAGGACGAAACAGC,0.228 ± 0.096,1.92 ± 0.025,1.6 ± 0.015,0.116 ± 0.032
